From PMC7062162

Key:
[1] = biological target: 0410 Y1A peptide-DR1 complex (human)
[2] = biological target: OPT1 Y1A peptide-DR1 complex (human)
[3] = biological target: Y1I peptide-DR1 complex (human)
[4] = biological target: L4G peptide-DR1 complex (human)
[5] = biological target: L4G′ peptide-DR1 complex (human)
[6] = biological target: L4R peptide-DR1 complex (human)
[7] = biological target: A6E peptide-DR1 complex (human)
[8] = biological target: A6G peptide-DR1 complex (human)
[9] = biological target: I9E peptide-DR1 complex (human); experiment: fluorescence polarisation; real-time fluorescence anisotropy of Alexa Fluor 488-peptide leaving DR1 (50 nM complex) with titrated HLA-DM (up to 90 μM) and 20 μM unlabeled competitor peptide; 250 mM citrate, 150 mM NaCl, pH 5.0, 37 °C; kobs fitted to a Michaelis-Menten model, Km taken as Kd of DM for the pMHCII (OPT1-DR1: initial velocities, Lineweaver-Burk)

soluble recombinant HLA-DM (DMA*0101/DMB*0101) (complex)
kcat, fold change against the 0410 complex [1]: 8 fold
kcat, fold change against OPT1-DR1 [2]: > 2600 fold
kcat, fold change against the homologous complex with Tyr at P1 [3]: 18 fold
kcat, fold change against OPT1-DR1 [4]: > 120 fold
kcat, fold change against the I9E complex [5]: 510 fold
kcat, fold change against OPT1-DR1 [6]: > 1300 fold
kcat, fold change against OPT1-DR1 (A6E) [7]: > 200 fold
kcat, fold change against the A6G complex (G6E) [7]: > 100 fold
kcat, fold change against OPT1-DR1 [8]: 2 fold
fold decrease in Km against the homologous complex with Ile at P9 [9]: 9 fold
